The target of experiment [1] is T1, TGF-β1 (UniProt P01137 279-390). Put plainly: cell-based or functional assay.
Experiment [2] addresses T1, TGF-β1. Nature of the experiment: cell-based or functional assay. The source holds these as a separate data set.
Experiment [3] has as its target T1, TGF-β1. Nature of the experiment: cell-based or functional assay. This is another data set of the same source.
Experiment [4] deals with T1, TGF-β1. Put plainly: SPR (Biacore); amine-coupled TGF-β1 on chip, antibody as analyte, kinetic fit. From the text:
Recombinant mAb1-D10 fusion variants of Example 7 were also quantitatively assessed for TGF-β1 binding using surface plasmon resonance (SPR) as detected by Biacore. Samples containing purified variants were passed over a sensor chip with amine-coupled TGF-β1 to determine the equilibrium constant, KD. A target immobilization level of less than 100 response units (RU) of TGF-β1 was chosen to minimize the potential for avidity effects arising from binding adjacent TGF-β1 molecules on the chip. The level of immobilization was determined by the change in response units after NHS/EDC activation of the chip surface, but before quenching with ethanolamine. The fusion variants, WT fusion variant F1, and mAb1 control were diluted to 30, 10, 3, 1 and 0.37 nM in HBS-EP buffer and passed over the TGF-β1 chip at 30 μL/min for 3 min, followed by 5 min dissociation in the same buffer. Between runs, the chip surface was regenerated to remove any bound antibody by passing two 30 sec injections of 40 mM HCl over the chip at a flow rate of 75 μL/min. […] Unexpectedly, the maximum signal (RU) elicited by the fusion variants decreased with increasing number of peptides, with variant F17 (D10-HC-D10/D10-LC, PAR=6) showing the lowest signal. […] A possible explanation of this decline may reflect electrostatic repulsion between the chip matrix (carboxymethyl dextran) and the negatively charged D10 peptides.
A general note: In SPR one partner is held on a chip, and binding of the other changes the refractive index at the surface.

In experiment [5] the target is T1, TGF-β1. Nature of the experiment: cell-based or functional assay. This is another data set of the same source.

By Kd is commonly meant the constant that tells how readily two partners part at equilibrium. High values mean a looser complex, low ones a tighter complex. Broadly, the koff is a measure of how fast the partners let go of each other. A high value points to fast dissociation. The kon is the second-order rate constant of association. Higher therefore signals fast association.

Where two headings read alike, the source gives them in different places.

T1 sequence (P01137 279-390 limits assumed): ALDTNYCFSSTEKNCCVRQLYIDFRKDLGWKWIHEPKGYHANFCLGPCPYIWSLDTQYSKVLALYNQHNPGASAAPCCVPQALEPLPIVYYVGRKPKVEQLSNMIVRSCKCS

B1: mAb1 control conjugate (PAR=0) (antibody, mouse IgG1, kappa)
heavy: HVQLQQSGPELVRPGASVKLSCKASGYIFITYWMNWVKQRPGQGLEWIGQIFPASGSTNYNEMFEGKATLTVDTSSSTAYMQLSSLTSEDSAVYYCARGDGNYALDAMDYWGQGTSVTVSSAKTTPPSVYPLAPGSAAQTNSMVTLGCLVKGYFPEPVTVTWNSGSLSSGVHTFPAVLQSDLYTLSSSVTVPSSTWPSQTVTCNVAHPASSTKVDKKIVPRDCGCKPCICTVPEVSSVFIFPPKPKDVLTITLTPKVTCVVVDISKDDPEVQFSWFVDDVEVHTAQTKPREEQFNSTFRSVSELPIMHQDWLNGKEFKCRVNSAAFPAPIEKTISKTKGRPKAPQVYTIPPPKEQMAKDKVSLTCMITDFFPEDITVEWQWNGQPAENYKNTQPIMDTDGSYFVYSKLNVQKSNWEAGNTFTCSVLHEGLHNHHTEKSLSHSPGK
light: NIVLTQSPASLAVSLGQRATISCRASESVDSYGNSFMHWYQQKSGQPPKLLIYLASNLESGVPARFSGSGSRTDFTLTIDPVEADDAATYYCQQNNEDPLTFGAGTKLELKRADAAPTVSIFPPSSEQLTSGGASVVCFLNNFYPKDINVKWKIDGSERQNGVLNSWTDQDSKDSTYSMSSTLTLTKDEYERHNSYTCEATHKTSTSPIVKSFNRNEC
modifications: hinge disulfides reduced; D10-maleimide peptide omitted; thiols blocked with N-ethylmaleimide
As to B1, the “IC50 (read off the curve); IL-11 release by A549 cells in response to TGF-β1” value (“IC50 (read off the curve); IL-11 release” below) with TGF-β1 [1] was roughly 0.05 nM. Moreover, the “half-maximal inhibition of IL-11 release (EC50), A549 cells” value (“half-maximal inhibition of IL-11 release” below) with TGF-β1 [2] was roughly 0.1 nM.

B2: mAb1 (mouse IgG1 anti-TGFβ monoclonal antibody, R&D Systems Clone #1D11) (antibody)
heavy: B1 heavy
light: B1 light
notes: Mouse IgG1, pan-specific anti-TGFβ; bought antibody used as control; also called unmodified mAb; mAb1 control
As for B2, the “IC50 (read off the curve); IL-11 release” value with TGF-β1 [1] is roughly 0.2 nM. Besides, the “IC50 (read off the curve); IL-11 release” value with TGF-β1 [3] is roughly 0.1 nM. Further, the “half-maximal inhibition of IL-11 release” value in the experiment with TGF-β1 [2] was roughly 0.1 nM. In the experiment with TGF-β1 [4], this molecule yielded a Kd of 6 nM, a koff of 0.001 s⁻¹ and an association rate constant (kon) of 167000 M⁻¹ s⁻¹. Further, in the experiment with TGF-β1 [5], the “IC50 (read off the curve); IL-11 release” value was roughly 0.2 nM.

B3: mAb1-D10 conjugate (PAR=5) (antibody, mouse IgG1, kappa)
heavy: B1 heavy
light: B1 light
modifications: Ac-D10-C2-PEG12-C6-maleimide on reduced hinge region cysteines; average 5 peptides per antibody
In the case of B3, the “IC50 (read off the curve); IL-11 release” value with TGF-β1 [1] was roughly 0.06 nM. For the same molecule, the “half-maximal inhibition of IL-11 release” value with TGF-β1 [2] was roughly 0.1 nM.

B4: mAb1-D10 conjugate (PAR=9) (antibody, mouse IgG1, kappa)
heavy: B1 heavy
light: B1 light
modifications: Ac-D10-C2-PEG12-C6-maleimide possibly on a light chain cysteine; Ac-D10-C2-PEG12-C6-maleimide on reduced hinge region cysteines; average 9 peptides per antibody (heavy and light chains together)
In the case of B4, the “IC50 (read off the curve); IL-11 release” value with TGF-β1 [1] is roughly 0.04 nM. Besides, the “half-maximal inhibition of IL-11 release” value in the experiment with TGF-β1 [2] is roughly 0.1 nM.

B5: mAb1 F17 (antibody, mouse IgG1, kappa)
heavy: DDDDDDDDDDHVQLQQSGPELVRPGASVKLSCKASGYIFITYWMNWVKQRPGQGLEWIGQIFPASGSTNYNEMFEGKATLTVDTSSSTAYMQLSSLTSEDSAVYYCARGDGNYALDAMDYWGQGTSVTVSSAKTTPPSVYPLAPGSAAQTNSMVTLGCLVKGYFPEPVTVTWNSGSLSSGVHTFPAVLQSDLYTLSSSVTVPSSTWPSQTVTCNVAHPASSTKVDKKIVPRDCGCKPCICTVPEVSSVFIFPPKPKDVLTITLTPKVTCVVVDISKDDPEVQFSWFVDDVEVHTAQTKPREEQFNSTFRSVSELPIMHQDWLNGKEFKCRVNSAAFPAPIEKTISKTKGRPKAPQVYTIPPPKEQMAKDKVSLTCMITDFFPEDITVEWQWNGQPAENYKNTQPIMDTDGSYFVYSKLNVQKSNWEAGNTFTCSVLHEGLHNHHTEKSLSHSPGKDDDDDDDDDD
light: DDDDDDDDDDNIVLTQSPASLAVSLGQRATISCRASESVDSYGNSFMHWYQQKSGQPPKLLIYLASNLESGVPARFSGSGSRTDFTLTIDPVEADDAATYYCQQNNEDPLTFGAGTKLELKRADAAPTVSIFPPSSEQLTSGGASVVCFLNNFYPKDINVKWKIDGSERQNGVLNSWTDQDSKDSTYSMSSTLTLTKDEYERHNSYTCEATHKTSTSPIVKSFNRNEC
notes: Mouse IgG1 fusion variant, PAR 6; also called D10-HC-D10: D10-LC
As to B5, in the experiment with TGF-β1 [3], the “IC50 (read off the curve); IL-11 release” value was roughly 0.02 nM. In addition, in the experiment with TGF-β1 [4], the Kd amounted to 4.15 nM, the koff was 0.00079 s⁻¹ and the on-rate (kon) amounted to 191000 M⁻¹ s⁻¹.

The record behind these values is patent US20210163584A1 (Sanofi, published 2021).
